Reference: the supplement of paper PMC12636428

Test system: Saccharomyces cerevisiae
Test: transcriptional activation domain activity (GFP:mCherry ratio, weighted mean of sorted bins, harmonized to initial dataset scale) (arbitrary fluorescence ratio units); higher = stronger transcriptional activation
Conditions: beta-estradiol 1 µM; induction time 4 h
Outline: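 Sorting into 8 bins by GFP:mCherry ratio followed a 4-hour hold at 30 °C after cultures were diluted 1:5 into SC with 1 uM beta-estradiol. The yeast diploids carried a GFP reporter and had barcoded protein tiles, fused to an estradiol-inducible synthetic transcription factor, integrated at URA3. Barcodes were then sequenced, and tiles with under 50 reads were removed. Activation activity is the read-weighted mean of bin median fluorescence, averaged across barcodes and linearly mapped onto the initial dataset scale.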

Sequence	transcriptional activation domain activity
ADSKTRNKRDGSNSTTSRSRSSRSRGEAVDDDGSSSSKRSSRSSRTDEGGAAR	41400
VLHESCGSPVFLLFSCFILLSLWRIVGRISLSILLVLRSLFCCYFPSLLFWLW	36900
NRPGQKSIQVLNQYIGIDIGKCYLCGRLCVNLSYVCWSSPQLLYNCRMVMITR	41000
LLLLPVSFLVLSGIYSPFILILFDSPWPVLYVLIYFPLCYFVLSPYIIFALSP	51200
ITFLFIFFFYFFTYSFFYISFFRTCFPEFAHQMFEMVLLWNLFLLFVFCLFFF	57600
VTCFGILCFLLSALYLCIGFDPFINQLLYCGVLWLFQGIYFVLFGMKVALHFQ	36200
MFKGTLLLVFFHYGWALFLDYCLWYIMISLCFWYRVCLPVLLLGFHVCCHLWC	48500
PSIRRCPVSFGDIDMEAELACIQYIREVLLPELVPCAYILLSYILHLLHEVSL	77000
PKAEAPKAEAPKPKEEESKKETAKQESKPEPKKADASKIAAPAASKPPAPKPS	49200
LDAVSSFNSSSVKSNFASKVNTQLNLLQHSSSNSNFLDASPYDFNKIFMNNFE	62000
AHVTMPYLLAIACHTAGIICMWICYCACLVWCSTVLPILLIIIIILIVFLNAN	25200
KRPTSHTLRPFFYFLLAVIYTVAHALVMIYQMISLNVAVNSYDNALLTLLVSN	52200
RRPRAAKPGTEQPKPETEKPGSEKRPGSEKRPRGRPRKAAAKPSTEKQPSNAK	21300
RGAARCFCVYFFLSLWHFYENHIFFFCSLFFHSLLLCHFFFSFFCVALRLLAC	33800
MFYNAQFVDCGPSALVMVLVLLAPYLPNPLQLRRAFTTRPPTVLFAVLGILET	61600
EMGTLAALLWQPEIRDLTTYLRDIRVAVANVLDVFAMIEPSRLIAKIKIHLLA	43100
LGNISAERHVLNTLSKIPAAQLHDALLVLPFSSLPALFTFLAIWVRKQWNVTL	56000
SSQTPVLLWIIHFILPNLCILLYFTLQLIYLLRHHKSKWLIGDLVHSYCFYFI	81000
RKLRDVHVPEVPLPLGPDGKADRKKSSLIMVHYVLMHSREVILLCLHRSFFAQ	65300
QVKAKTARKSSRAATKKSSAKRRRDESSEESSDEDESGGERVSRGRGGAVRDK	36000
AAAGNATAEAGAAEGKAKGKGKDAAAAEGAAAAGGAAAAEGKAKGKGKDAAAA	46600
IMMFPMFIALSILYAMVYLGVLFSFFSVLFFFSVVYFLEPGGLCILDVFFYYY	68000
SHYALCVNMHAYWHSNPHFGSEHRWLGFPPFYHVFGLSYILLLAPCLGATVCV	61100
MIRTLFLFFLFIIIFFFFFFFCFLLFFVFLFLFIFLIVVFTIRKSMNLGFVCV	42400
TYPVSMPFDGTLNLDLDMCFLDVTNTDINFSDIFDPNFQFGSYGFPLSLDYDI	139000

Sequence	transcriptional activation domain activity
EQAEKEAAAEKATPKEAAAKEESPKEESPKEESPEKKEVKKPVKKTPTKKNAK	27100
MSLPIHRLLSYTCSIIYLLVHHLYFVFSFFIPVYFIQAQFFFAAFPFILFFIC	66900
ITVFNYTVYDIISPTGTNYLAFMCWIGLWSLVFHWILAITNCCNWLRYVTRFP	32700
WRGRLVQRRSNDHEIDFVPYKTIYGGFWSHVNPSRLAVPRYLNIFRIIVWLFF	54400
EVAANHRTILDHTMSLVSAVHIACLRFMTVAWAQAYRRYIVAWIRDLQVLHPH	70400
MKVNRPFACSHEGCEKAFARKGELTKHERLHSGERPFACSHCEKAFGRSDARK	16000
GAAPPPPPPPPARGGGAAPPPPPPPPPARGGAVPPPPPPPPPSGGGPPPPPPP	33000
ALSAWIIIQGYRVQWKTILLHDNLFVFTAASKSWVFAHAVYRFVLLTLPCFGS	40700
AFVNFIYVEDLLNFARTKLGVKWYFSHNLCIYVITHLLHRNMFSSEKVLQMSY	83400
VPTVFMAIIQEFASFLYLYQMMCMWVWYYFQYYQMGLVQTIIILMAAFIRVFL	65400
TFLLLSMPALLLLFSALGVCFLLSTSGLFFLSTSGFFFLLTTSGFFFFLFFML	37100
MCSCVIRRHPLAKPKMGSFQSIGALTCSSCSSWKMCILLFLILVWFTFRLTSL	21400
AGDTSDGESASTPAHSSHQSRKQQVRHRASVACASCRERRIRCVVPEGASECT	27400
MGMEHLAQPDQPNKKKRRRQALSCTECKRRKIKCDRKQPCSPCTRRGEQAKCQ	29900
MADQPQGRKPNNRRPRHRGRGGGAGGGGNGGGNGGGEDGGNEGGRGGRRGGRG	33900
ALLFLNTLLELLESYHKSQYLAEILSRLQVDWRSLWSWLSVFIRSYANLKMGT	28300
MSRVRLAPEGHMFFFVLIVFIFCFFCLFLFLAGDLKGGWLFFLRFGMGWVFLG	21600
GLCRSGELLLPGAQYHRNPAVRKAWPGIFKWTRRNAMDVIATVWFWLTRADGL	51100
KVAEPGSKVSLRAPVDPNAPAPKPKKGKDGKEIKEEPKMIEKVVDSIYLHVQT	41000
MEPRLGHPALLVYSLLLLLLILRWKMFSFLCVVFQWRCIMLFLVFLVFCWGVG	35900
MVNCLKVFLVVLLAPIPLAPPIFLLSFLALMVVDHEPCPYCSLLIILLLQSTC	31200
EFPAPPARPPPSHTAPPAPPPPPPPPPPPAAGGGVPPPPPPPPPPATGGAPAP	30300
MVRRLINLFLCRPCLLTFLCYLWVFNIFSSASDLYFLFLLSLFGFVFVMGWGS	38900
AAPAPAKRTAAAAGLEEAAASGELSKSQKKKLNKKLKGENGEAAAAPVAAAPS	30900
MSEPPRKRAKLACVTCNARRVKCDVTERQPCGNCVAGKILCETRESKRGKHPR	33800

Sequence	transcriptional activation domain activity
AASAEDAVVGEKHKAEEPLDTNGDAKKAKVTNGNGEARKPGRPSKKDKKPQPT	23100
HPLIDVSEEAFIQLAYLAVALAKHLCILTRVTYYQNVKGLSSSHFMYLFYICL	40200
MRRLKFGFFPPHFAGFFLSVVLHIIIVYNLWVPFVLLFLLISFLSFLSCIQSF	54200
EEEVEEKKAKKEKKSKEDKEDKKAKKDKKSKKDKSKDADEDVERTNGHSTPAA	26100
SQPSDTIRKRTAGDDGALDQTENTSISPKKRRTEDHTKGEEDEGERGVGNSGT	22200
KKSGTTSKDEKKEGDSDSKATPSSGESAAPSAANNEGGKKEEKSEEKKEEKEE	41700
GKEKNHGRGERNGERTKAKGEGRGEEDSQRRGRRRESKERGRRRGGEPEETKG	49600
VREEPTAFFFVVFGLVYETLVTSVPDSDAAAHRTSIVALKALKCLVQEKYCGK	46200
GCEPKNQRIFYFHVLILQRSLMARLERHEEGLSTKEWRLVLGDHYWISHWKKV	51400
MGKGGYGEQRGGGRGGFRGGRGGGRGGFGGGGFNQGPPSEVVVVGTFVSACEG	58400
SILLMQHNLYHFIHFFKKIRQVIEKGEYPSFKQELIQNLGQTGWWKFLNAKSL	59500
GGRGGGRGGRGGGGRGGRDRDGGRGGGRGRGGRGGGEGEEVVGTEGKDGGAEA	18300
YCDAKPGHSLVFAGHAGELELYLDKSCDADSIMTRENLGSLNRFVRLLLLLAK	38300
KKLHLESEEDAEYIVAKAIRDGVIEAQVNHERGEMTSRETGDVYSTNEPQAQL	< 6570
AGAPVFGLPPFRWWRFNVFWMFWCFFWNLQGVINLVTLDINGYLSIFIPFITI	58700
AAKRKTRADEHEEDEEEEHREATVVRRARGRPRKVEAPEPEAPVRATRGRATK	17000
TIDSSGVVLTPDPLSFDIGNFDSFSTSLYGFWPLTNAFDFTPYNSGSLAWLLL	99800
APTLNYELARKFIENSEDALHNSETMDLLGTLSHGNDFALEYNFDFTLLNEID	121000
MDPEQATDAKPPKPPVVRGARACTVCRAAKMKCVGAEDGQKPCQRCKRANVEC	53000
YAASSASPAPPRKYPPARKASPSPSPTPPRTRKSSASALRRPASTPTPPAPSP	23200
FKDLLVEGFDNNRLIVAIPFVCKVLEQASKSRVFKPPNPWLMAILRLLVELYH	51200
CDSGNEFDGRIGLRVSSIFVILIGSLIGAMLPVVLARSSKMRVPKLAFFVAKY	36900
ETPAAEPVKETETAAEAAPAEAAAEATPEEAKEEKKEEKKEEKVKGSKVGRRL	32500
CVGFANYCHFIRFLVYVGLGAIYLMVLLGCRLSSILYHPASATEWVLLGLNLF	63000
